Tests used:
[1] = target: AH receptor nuclear translocator (ARNT), full length (human) (UniProt P27540); experiment: yeast two-hybrid, lacZ reporter (FIG. 3)
[2] = target: AH receptor nuclear translocator (ARNT), full length (human) (UniProt P27540); experiment: yeast two-hybrid, Galacto-Light lacZ assay, 1 µM βNF
[3] = target: AH receptor nuclear translocator (ARNT), full length (human) (UniProt P27540); experiment: yeast two-hybrid, Galacto-Light lacZ assay, with vs without 1 µM βNF
[4] = target: Human CLOCK, full length (human) (UniProt O15516); experiment: cell-based or functional assay
Human CLOCK, full length (human), sequence (O15516 whole entry): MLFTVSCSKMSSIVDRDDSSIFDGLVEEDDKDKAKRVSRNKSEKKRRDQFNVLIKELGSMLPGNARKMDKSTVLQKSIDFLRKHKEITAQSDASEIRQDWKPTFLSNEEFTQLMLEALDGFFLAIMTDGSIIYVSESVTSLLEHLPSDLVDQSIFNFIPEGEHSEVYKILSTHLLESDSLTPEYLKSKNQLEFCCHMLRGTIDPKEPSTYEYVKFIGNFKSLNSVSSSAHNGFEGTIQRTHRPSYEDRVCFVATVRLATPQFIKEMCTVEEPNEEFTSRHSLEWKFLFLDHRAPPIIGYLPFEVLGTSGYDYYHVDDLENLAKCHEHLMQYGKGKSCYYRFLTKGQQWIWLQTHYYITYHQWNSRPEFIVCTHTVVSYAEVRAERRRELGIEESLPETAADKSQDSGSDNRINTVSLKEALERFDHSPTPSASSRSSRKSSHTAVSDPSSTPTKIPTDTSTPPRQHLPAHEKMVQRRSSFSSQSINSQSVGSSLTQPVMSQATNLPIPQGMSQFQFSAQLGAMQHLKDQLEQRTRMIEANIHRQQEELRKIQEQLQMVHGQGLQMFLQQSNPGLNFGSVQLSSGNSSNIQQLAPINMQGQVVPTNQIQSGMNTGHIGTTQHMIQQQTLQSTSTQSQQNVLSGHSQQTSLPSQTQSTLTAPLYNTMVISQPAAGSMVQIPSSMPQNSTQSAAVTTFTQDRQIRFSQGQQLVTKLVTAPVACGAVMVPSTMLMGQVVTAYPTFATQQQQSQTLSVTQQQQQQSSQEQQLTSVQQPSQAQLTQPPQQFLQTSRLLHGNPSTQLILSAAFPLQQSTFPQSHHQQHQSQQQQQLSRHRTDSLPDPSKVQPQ

MOP1/HIF1α (human) = MOP1/HIF1α (human) (UniProt Q16665); experiment: cell-based or functional assay
MOP1/HIF1α (human), sequence (Q16665 whole entry): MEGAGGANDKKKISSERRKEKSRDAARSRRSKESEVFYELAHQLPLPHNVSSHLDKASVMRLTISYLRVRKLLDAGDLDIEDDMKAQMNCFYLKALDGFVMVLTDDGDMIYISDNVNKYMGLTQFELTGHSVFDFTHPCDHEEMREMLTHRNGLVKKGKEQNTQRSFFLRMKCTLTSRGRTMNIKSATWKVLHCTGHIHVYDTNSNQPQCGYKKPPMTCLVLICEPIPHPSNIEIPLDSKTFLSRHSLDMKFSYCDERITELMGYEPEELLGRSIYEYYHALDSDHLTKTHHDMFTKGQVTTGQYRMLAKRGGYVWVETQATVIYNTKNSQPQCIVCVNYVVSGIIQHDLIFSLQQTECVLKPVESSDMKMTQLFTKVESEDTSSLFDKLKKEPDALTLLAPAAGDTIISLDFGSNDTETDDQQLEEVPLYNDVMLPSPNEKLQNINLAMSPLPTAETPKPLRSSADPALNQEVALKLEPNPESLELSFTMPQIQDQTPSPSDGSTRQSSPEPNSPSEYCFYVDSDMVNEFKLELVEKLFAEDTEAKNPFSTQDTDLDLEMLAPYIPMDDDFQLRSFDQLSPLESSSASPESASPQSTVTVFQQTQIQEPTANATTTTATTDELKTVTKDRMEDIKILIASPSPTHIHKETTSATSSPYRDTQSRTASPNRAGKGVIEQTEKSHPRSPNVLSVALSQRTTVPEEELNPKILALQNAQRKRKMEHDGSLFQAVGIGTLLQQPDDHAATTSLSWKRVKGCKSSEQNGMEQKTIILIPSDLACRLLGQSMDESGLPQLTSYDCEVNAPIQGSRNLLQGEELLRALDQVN

MOP2 (human) = MOP2 (human) (UniProt Q99814); experiment: cell-based or functional assay
MOP2 (human), sequence (Q99814 other isoform, or with tags, fused parts or gaps limits assumed): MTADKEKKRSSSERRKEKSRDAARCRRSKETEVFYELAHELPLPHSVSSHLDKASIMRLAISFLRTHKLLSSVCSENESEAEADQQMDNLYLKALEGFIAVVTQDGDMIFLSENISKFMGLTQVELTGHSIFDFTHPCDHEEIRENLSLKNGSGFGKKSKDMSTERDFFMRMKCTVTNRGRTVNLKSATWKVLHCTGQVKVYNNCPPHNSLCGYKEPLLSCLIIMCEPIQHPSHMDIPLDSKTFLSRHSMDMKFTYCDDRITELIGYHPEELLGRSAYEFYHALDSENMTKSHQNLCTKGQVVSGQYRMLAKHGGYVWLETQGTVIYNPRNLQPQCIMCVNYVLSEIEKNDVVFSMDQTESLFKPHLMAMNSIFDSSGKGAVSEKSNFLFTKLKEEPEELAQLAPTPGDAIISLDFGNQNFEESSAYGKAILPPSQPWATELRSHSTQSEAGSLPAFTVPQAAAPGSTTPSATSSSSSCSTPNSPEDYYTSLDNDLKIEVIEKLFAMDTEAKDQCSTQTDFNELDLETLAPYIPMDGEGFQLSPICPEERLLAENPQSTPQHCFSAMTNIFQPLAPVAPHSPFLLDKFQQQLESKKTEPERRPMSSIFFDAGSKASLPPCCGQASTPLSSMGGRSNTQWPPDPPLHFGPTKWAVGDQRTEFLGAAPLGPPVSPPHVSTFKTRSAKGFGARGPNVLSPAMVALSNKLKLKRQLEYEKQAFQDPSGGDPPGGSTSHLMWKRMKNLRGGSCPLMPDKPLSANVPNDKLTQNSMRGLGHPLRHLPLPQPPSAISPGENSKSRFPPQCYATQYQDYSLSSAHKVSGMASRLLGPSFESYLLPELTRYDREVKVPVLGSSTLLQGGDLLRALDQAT

MOP4 (human) = MOP4 (human) (UniProt Q99743); experiment: cell-based or functional assay
MOP4 (human), sequence (Q99743 other isoform, or with tags, fused parts or gaps limits assumed): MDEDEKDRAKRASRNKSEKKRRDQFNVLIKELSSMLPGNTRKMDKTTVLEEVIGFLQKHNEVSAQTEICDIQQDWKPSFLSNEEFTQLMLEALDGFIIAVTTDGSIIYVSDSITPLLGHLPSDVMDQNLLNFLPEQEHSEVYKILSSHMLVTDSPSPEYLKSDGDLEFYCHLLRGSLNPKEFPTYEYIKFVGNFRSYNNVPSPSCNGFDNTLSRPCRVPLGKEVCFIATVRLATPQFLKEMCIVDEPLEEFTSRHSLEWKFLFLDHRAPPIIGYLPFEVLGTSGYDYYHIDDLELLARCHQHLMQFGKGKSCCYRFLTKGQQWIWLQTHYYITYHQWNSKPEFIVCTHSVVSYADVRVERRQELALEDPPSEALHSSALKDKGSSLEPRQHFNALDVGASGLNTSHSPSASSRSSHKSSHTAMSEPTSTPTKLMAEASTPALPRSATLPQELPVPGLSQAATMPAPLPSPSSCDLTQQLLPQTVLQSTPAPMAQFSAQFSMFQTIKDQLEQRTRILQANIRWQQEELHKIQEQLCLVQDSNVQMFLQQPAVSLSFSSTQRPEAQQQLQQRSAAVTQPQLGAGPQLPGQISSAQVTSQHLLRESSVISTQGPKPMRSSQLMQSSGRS

AH receptor nuclear translocator (ARNT), full length (human), sequence (P27540 whole entry): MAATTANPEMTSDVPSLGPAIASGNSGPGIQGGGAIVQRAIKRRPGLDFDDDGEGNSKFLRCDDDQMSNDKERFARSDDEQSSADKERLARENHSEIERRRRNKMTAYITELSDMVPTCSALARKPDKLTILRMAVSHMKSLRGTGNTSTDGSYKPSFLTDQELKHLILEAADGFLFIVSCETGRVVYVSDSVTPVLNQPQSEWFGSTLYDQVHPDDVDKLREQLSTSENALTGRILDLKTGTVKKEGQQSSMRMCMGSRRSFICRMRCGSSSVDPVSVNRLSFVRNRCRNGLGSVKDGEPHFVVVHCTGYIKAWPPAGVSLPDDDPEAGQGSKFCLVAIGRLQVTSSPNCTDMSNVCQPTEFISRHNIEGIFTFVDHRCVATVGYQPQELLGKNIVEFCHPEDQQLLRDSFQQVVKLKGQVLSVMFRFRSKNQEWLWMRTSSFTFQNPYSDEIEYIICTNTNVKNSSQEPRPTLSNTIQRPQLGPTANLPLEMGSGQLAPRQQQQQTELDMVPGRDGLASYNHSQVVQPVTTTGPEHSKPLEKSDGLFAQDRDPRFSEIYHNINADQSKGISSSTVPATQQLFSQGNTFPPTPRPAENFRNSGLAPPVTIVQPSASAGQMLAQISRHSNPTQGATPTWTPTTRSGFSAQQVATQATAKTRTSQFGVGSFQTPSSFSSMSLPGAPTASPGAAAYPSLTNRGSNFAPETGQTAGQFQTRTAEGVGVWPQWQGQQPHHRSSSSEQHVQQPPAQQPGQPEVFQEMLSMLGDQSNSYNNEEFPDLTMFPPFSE

Substance: LexAAHR (from UniProt P0A7C2 1-202; P30561 1-805)
- fold relative to the LexAARNT-AHR interaction [1]: 14.7 times
- fold above background (lacZ reporter activity) [2]: 913 fold
- fold over the same pair in the absence of ligand [3]: 6.4 fold

Substance: full-length MOP3 (cDNA form identified by the yeast interaction trap)
- luciferase reporter with three copies of the M34 element, COS-1 cells [4]: 5.6 fold
- luciferase reporter with six copies of the M13 element, COS-1 cells (MOP1/HIF1α (human)): 3.3 fold
- luciferase reporter with six copies of the M13 element, COS-1 cells (MOP2 (human)): 3.6 fold
- luciferase reporter with three copies of the M34 element, COS-1 cells (MOP4 (human)): 3.3 fold

Reference: US7105647
